Results from patent publication US20240109963A1 (AB THERAPEUTICS, published 2024).
Each block holds one binder with its values, some of them ahead of it.

Experiments:
[1] = molecular target: T1, full-length human Claudin 18.2 on MIA PaCa-2 cells (MIA PaCa-2+ Claudin 18.2) (human, UniProt P56856-2 1-261); assay: cell-based or functional assay
T1 sequence (looked up): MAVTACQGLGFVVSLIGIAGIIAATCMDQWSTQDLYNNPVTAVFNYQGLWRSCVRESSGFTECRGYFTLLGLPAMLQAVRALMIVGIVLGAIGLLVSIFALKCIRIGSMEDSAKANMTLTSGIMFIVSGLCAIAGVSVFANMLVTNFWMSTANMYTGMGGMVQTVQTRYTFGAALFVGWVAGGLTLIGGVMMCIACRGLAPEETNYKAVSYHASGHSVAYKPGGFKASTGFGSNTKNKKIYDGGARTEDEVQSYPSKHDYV

CD3 on Jurkat cells = molecular target: T2, CD3 on Jurkat cells; assay: flow cytometry on Jurkat cells, CD3 binding (T cell) (summary table)
T2 construct: whole, on cells; also called CD3+ Jurkat cells

[2] = molecular target: T3, Claudin 18.2 on CHO cells (CHO+ Claudin 18.2) (UniProt P56856-2 1-261); assay: flow cytometry, unpurified supernatant on CHO+ Claudin 18.2 cells, FITC-positive cells
T3 construct: whole, on cells; also called CHO_18.2
T3 sequence (looked up): T1 sequence (looked up)
Experimental: To compare the half maximal effective concentration (EC50) of the lead BsAbs, 8.5×10⁴ cells/well of CHO+ Claudin 18.2 cells in 100 μl FACS buffer were seeded in a V-bottom 96-well plate. […] The final concentrations of the BsAbs were 10 μg/ml, 1 μg/ml, 100 ng/ml, 10 ng/ml, 1 ng/ml, 100 pg/ml, 10 pg/ml, and 1 pg/ml. After incubating the plate at RT for 45 minutes, the cells were washed twice with the FACS buffer and cell pellets were resuspended in 100 μl FACS buffer containing goat anti-human-FITC (1:200) for 30 minutes at RT in dark. Afterwards, the cells were washed twice with FACS buffer, and cell pellets were resuspended in 120 μl FACS buffer. The percentage of FITC-positive cells were analyzed by flow cytometry.

T2 sequence (P07766 23-207, chain 1 of 3): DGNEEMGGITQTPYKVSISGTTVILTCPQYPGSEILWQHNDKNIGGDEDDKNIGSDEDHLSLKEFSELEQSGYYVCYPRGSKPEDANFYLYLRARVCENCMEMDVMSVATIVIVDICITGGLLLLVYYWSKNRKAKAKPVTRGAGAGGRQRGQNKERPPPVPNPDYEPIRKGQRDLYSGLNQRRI
T2 sequence (P09693 23-182, chain 2 of 3, further chain): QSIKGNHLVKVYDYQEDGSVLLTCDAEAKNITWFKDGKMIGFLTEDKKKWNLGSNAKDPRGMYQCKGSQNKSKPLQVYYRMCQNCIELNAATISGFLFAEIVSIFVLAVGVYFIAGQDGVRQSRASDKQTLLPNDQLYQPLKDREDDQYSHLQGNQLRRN
T2 sequence (P04234 22-171, chain 3 of 3, further chain): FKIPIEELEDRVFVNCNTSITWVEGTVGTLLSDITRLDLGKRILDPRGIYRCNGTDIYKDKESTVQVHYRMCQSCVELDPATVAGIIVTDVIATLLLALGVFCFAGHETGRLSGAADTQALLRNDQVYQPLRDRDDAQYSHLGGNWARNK

- T cell activation EC50 (CD69-positive cells) [1]: 0.056 µg/mL
- EC50 (CD3 on Jurkat cells): 58.9 µg/mL
B1: Claudin 18.2-1B2/CD3 BsAb (BiSpecific-V1 structure) (bispecific antibody)
VHH-Fc: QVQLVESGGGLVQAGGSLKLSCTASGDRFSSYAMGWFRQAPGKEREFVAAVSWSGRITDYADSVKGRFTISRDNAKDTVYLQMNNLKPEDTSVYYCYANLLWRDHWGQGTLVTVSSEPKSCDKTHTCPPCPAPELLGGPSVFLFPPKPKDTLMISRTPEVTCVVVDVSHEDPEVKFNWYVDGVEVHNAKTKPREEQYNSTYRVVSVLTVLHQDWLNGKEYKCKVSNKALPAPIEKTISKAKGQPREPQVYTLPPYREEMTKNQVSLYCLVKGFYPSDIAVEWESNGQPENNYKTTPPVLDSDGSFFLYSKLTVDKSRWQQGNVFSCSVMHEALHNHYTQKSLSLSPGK
heavy: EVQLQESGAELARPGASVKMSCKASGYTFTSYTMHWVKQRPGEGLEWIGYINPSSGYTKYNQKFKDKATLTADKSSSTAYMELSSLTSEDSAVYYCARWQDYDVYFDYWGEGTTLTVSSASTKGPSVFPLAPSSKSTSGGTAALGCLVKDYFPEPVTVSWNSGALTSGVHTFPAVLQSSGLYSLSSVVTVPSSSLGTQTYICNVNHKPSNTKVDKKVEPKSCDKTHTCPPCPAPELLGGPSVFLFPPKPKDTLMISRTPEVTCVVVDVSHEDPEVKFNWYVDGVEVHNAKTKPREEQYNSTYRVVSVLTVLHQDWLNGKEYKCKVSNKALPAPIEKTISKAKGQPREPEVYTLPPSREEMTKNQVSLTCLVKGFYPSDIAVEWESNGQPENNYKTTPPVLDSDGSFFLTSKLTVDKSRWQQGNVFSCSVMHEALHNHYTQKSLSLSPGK
light: QIVLSQSPAILSASPGEKVTMTCRASSSVSYIHWFQQKPGSSPKPWIYATSNLASGVPVRFSGSGSGTSYSLTISRVEAEDAATYYCQQWTSNPPTFGGGTKLEIKRTVAAPSVFIFPPSDEQLKSGTASVVCLLNNFYPREAKVQWKVDNALQSGNSQESVTEQDSKDSTYSLSSTLTLSKADYEKHKVYACEVTHQGLSSPVTKSFNRGEC

- EC50 [2]: ~0.013 µg/mL
B2: Claudin 18.2-3C2/CD3 BsAb (BiSpecific-V1 structure) (bispecific antibody)
VHH-Fc: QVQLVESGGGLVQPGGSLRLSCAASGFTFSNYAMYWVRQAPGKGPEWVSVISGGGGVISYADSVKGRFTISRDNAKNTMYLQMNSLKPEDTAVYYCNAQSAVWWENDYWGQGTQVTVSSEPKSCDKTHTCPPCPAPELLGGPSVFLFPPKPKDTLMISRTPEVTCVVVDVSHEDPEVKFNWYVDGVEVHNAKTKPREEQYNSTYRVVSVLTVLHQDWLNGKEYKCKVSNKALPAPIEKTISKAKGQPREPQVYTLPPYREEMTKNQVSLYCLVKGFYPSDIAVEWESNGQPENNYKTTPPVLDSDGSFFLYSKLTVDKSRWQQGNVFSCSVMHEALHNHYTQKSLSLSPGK
heavy: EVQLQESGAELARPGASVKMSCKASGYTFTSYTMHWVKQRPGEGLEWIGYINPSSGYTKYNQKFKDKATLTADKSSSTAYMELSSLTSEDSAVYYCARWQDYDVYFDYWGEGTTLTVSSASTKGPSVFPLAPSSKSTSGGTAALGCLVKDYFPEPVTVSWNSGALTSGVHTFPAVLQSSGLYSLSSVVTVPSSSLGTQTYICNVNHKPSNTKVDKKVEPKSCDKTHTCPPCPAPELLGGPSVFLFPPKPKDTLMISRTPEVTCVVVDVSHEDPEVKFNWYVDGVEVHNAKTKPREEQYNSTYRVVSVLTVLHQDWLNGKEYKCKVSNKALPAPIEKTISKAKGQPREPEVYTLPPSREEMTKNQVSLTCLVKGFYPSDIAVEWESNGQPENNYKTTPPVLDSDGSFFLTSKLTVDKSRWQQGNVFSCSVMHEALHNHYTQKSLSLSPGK
light: B1 light
notes: tested as unpurified culture supernatant

- EC50 [2]: ~0.006 µg/mL
B3: Claudin 18.2-4G1/CD3 BsAb (BiSpecific-V1 structure) (bispecific antibody)
VHH-Fc: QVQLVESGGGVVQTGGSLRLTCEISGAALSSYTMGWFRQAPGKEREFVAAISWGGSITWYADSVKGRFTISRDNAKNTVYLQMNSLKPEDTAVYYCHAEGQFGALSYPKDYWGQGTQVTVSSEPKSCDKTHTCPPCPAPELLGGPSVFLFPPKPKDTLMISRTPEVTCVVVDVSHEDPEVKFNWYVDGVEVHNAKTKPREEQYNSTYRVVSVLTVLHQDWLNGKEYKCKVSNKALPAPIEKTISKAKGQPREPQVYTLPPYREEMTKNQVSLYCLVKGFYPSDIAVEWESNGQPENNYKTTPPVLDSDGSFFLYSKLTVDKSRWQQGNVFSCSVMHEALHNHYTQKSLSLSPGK
heavy: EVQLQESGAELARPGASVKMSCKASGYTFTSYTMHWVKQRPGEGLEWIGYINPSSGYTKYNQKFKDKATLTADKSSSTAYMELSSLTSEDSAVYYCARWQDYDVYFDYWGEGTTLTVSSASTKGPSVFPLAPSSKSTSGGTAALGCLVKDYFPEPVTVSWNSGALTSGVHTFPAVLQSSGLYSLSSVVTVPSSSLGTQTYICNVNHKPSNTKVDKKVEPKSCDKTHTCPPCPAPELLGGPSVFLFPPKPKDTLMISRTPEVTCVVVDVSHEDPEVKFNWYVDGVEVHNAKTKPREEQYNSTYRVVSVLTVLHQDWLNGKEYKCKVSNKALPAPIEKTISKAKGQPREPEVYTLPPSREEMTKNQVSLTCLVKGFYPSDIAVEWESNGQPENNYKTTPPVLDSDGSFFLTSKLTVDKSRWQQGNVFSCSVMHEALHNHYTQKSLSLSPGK
light: B1 light
notes: as for B2
